Changes are numbered by the printed parent chain.
Tests used:
[1] = target: T1, human Trop2 on cells (human, UniProt P09758 27-323); assay: cell-based or functional assay
T1 sequence (looked up): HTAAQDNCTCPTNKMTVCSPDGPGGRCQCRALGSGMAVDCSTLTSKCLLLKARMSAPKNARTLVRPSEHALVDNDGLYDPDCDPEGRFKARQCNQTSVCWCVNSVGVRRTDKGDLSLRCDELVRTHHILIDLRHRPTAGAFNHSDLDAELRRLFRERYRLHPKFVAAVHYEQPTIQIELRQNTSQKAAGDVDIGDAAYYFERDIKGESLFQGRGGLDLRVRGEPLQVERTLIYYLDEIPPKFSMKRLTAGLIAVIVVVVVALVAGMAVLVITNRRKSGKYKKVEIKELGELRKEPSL

[2] = target: T2, human TROP2 protein (Sino Biological, #10428-H08H) (human, UniProt P09758 27-274); assay: BLI epitope binning (Octet), biotinylated human Trop2 on SA sensor; row = primary antibody; competitor (secondary antibody, column): PR001165
T2 construct: bought protein; also called human Trop2 protein antigen (His tag); not shown: His tag
T2 sequence (looked up): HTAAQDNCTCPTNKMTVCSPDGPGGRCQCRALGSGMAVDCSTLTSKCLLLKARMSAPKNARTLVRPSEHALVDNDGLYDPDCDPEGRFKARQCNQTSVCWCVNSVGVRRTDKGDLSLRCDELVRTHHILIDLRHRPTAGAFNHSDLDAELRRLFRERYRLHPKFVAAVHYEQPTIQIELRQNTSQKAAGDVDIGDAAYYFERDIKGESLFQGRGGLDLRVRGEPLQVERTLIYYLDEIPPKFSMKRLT
Protocol: (§1) The biotinylated mixture after the incubation was washed three times with PBS and a Zeba centrifugal desalting column (Thermo Fisher, #89882) to remove excess biotin. The biotinylated Trop2 protein was captured by an SA sensor (Pall ForteBio, #18-5019) with the loading baseline set at 0.3 nm. The sensor was immersed in a well of assay buffer containing 50 nM primary antibody for 300 s. […] The binding assay was performed by comparing the binding of the secondary antibody to Trop2 in the presence of the primary antibody to the blocking of the primary antibody itself.

[3] = target: T2, human TROP2 protein (Sino Biological, …); assay: BLI epitope binning (Octet), biotinylated human Trop2 on SA sensor; row = primary antibody; competitor (secondary antibody, column): PR001142
Protocol: as §1

[4] = target: T2, human TROP2 protein (Sino Biological, …); assay: BLI epitope binning (Octet), biotinylated human Trop2 on SA sensor; row = primary antibody; competitor (secondary antibody, column): hRS7
Protocol: as §1

[5] = target: T2, human TROP2 protein (Sino Biological, …); assay: BLI epitope binning (Octet), biotinylated human Trop2 on SA sensor; row = primary antibody; competitor (secondary antibody, column): PR001166
Protocol: as §1

[6] = target: T3, monkey Trop2 protein (Sino Biological, #90893-C08H) (monkey, UniProt A0A2K5UE71 27-274); assay: BLI, Octet RED96; ratio against KD for human Trop2 protein
T3 construct: bought protein; also called monkey Trop2 protein antigen (His tag)
T3 sequence: T2 sequence (looked up) with M36V, K46E, S67N, I204V
Outline: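 Affinity and on/off rate constants came from real-time association and dissociation traces. The sensor carried human or monkey Trop2 loaded at 200 nM, and 40 nM antibody was applied for 3 min, then buffer for 5 min, at 30° C in PBS pH 7.4 containing 0.1% BSA and 0.02% Tween 20.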

[7] = target: T1, human Trop2 on cells; assay: flow cytometry on BxPC-3 tumor cells (second panel of the table)
Protocol: BxPC-3 tumor cells (the Cell Bank of the Chinese Academy of Sciences, #TCHu 12) were digested with 3 mL of TrypLE, and the digestion was stopped with 7 mL of the corresponding medium. […] The cell solution was centrifuged, and the cells were washed once with PBS+[…] buffer. […] The cells were washed once with PBS+0.50% BSA. The cells were incubated at 4° C. for 1 h in the dark with 100 μL of Alexa Fluor 488 goat anti-human IgG (Life technologies, #A-11013) diluted at 1:1000, and washed twice with PBS+0.50% BSA. The cells were resuspended in 200 μL of PBS+0.50% BSA. The suspension was centrifuged at 4° C. for 5 min at 2000 rpm and tested using a FACS verse flow cytometer or NovoCyte flow cytometer (ACEA Biosciences). All procedures were performed on ice.

B1: PR001166 (antibody, human IgG1, kappa, V domains shown)
VH: QVQLQESGPGLVKPSETLSLTCAVSGYSISSGYFWAWIRQPPGKGLEWIGSIYHSGRTHYNPSLKSRVIISLDTSKNQFSLKLRSVTAADSAVYYCAREGYASGSYYWGQGTLVTVSS
VL: EIVMTQSPATLSVSPGERATLSCRSSQSVNNYLAWFQQKPGQAPRLLIYDSSTRATGIPARFSGSGSGTEFTLTISSLQSEDFAFYFCQQYENWPLTFGGGTKVEIKR
notes: fully human IgG1/kappa; also called antibody No. (27)
With B1 the “ADCP (Donor A1925144#) EC50(nM), BxPC-3 + macrophages” value (“ADCP (Donor A1925144#) EC50(nM)” below) [1] was 0.0311 nM, the “ADCP (Donor A1925144#) Maximum phagocytosis %” value [1] was 9.33% and the “ADCP (Donor A1925144#) Minimum phagocytosis %” value [1] was 2.05%. For the same binder, the “ADCP (Donor A19143143#) EC50(nM), BxPC-3 + macrophages” value (“ADCP (Donor A19143143#) EC50(nM)” below) [1] was 0.161 nM, the “ADCP (Donor A19143143#) Maximum phagocytosis %” value [1] was 40.2% and the “ADCP (Donor A19143143#) Minimum phagocytosis %” value [1] was 2.04%. For the same binder, the “Inhibition rate (%)” value [2] was 18.5%, the “Inhibition rate (%)” value [3] was 85.4% and the “Inhibition rate (%)” value [4] was 21.8%. The “Inhibition rate (%)” value [5] was 102%.

B2: PR001142 (antibody, human IgG1, kappa, V domains shown)
VH: QVQLQESGPGLVKPSGTLSLTCAVSGDSISSNNWWSWVRQPPGKGLEWIGEIYPGGNPNYNPSLKSRVTISVDKSKNQFSLKLNSVTAADTAVYYCARGSGVISYFDYWGQGTLVTVSS
VL: DIQMTQSPSTLSASVGDRVTITCRASQSIGHWLAWYQQKPGKAPKLLIYKASSLESGVPSRFRGSGSGTEFTLTISSLQPDDFATYYCQQYSSYSPITFGQGSRLEIKR
notes: fully human IgG1/kappa; also called antibody No. (9)
With B2 the “ADCP (Donor A1925144#) EC50(nM)” value [1] was 0.0362 nM, the “ADCP (Donor A1925144#) Maximum phagocytosis %” value [1] was 12% and the “ADCP (Donor A1925144#) Minimum phagocytosis %” value [1] was 0.861%. The “ADCP (Donor A19143143#) EC50(nM)” value [1] was 0.199 nM, the “ADCP (Donor A19143143#) Maximum phagocytosis %” value [1] was 36.4% and the “ADCP (Donor A19143143#) Minimum phagocytosis %” value [1] was 1.75%. For the same binder, the “KD (monkey)/KD (human)” value [6] was 0.81, the “Inhibition rate (%)” value [2] was 99.2% and the “Inhibition rate (%)” value [3] was 101%. The “Inhibition rate (%)” value [4] was 97.8% and the “Inhibition rate (%)” value [5] was 85.5%.

B3: PR001133 (antibody, human IgG1, kappa, V domains shown)
VH: QVNLVESGGGVVQPGRSLKLSCAASGFTFSSYGMHWVRQAPGKGLEWVALIWSDGTNRYYTESVKGRFTISRDNSKNTLSLQMKSLRAEDTAVYYCAKDGWGTYGEYFQHWGQGTLVTVSS
VL: DIQMTQSPSSLSASVGDRVTITCRASQNINSYLHWYQQKPGKAPKLLIYAASSLQSGVPSRFSGSGSGTDFTLTISSLQPEDFAIYYCQQSYSIPPITFGQGTRLEIKR
notes: fully human IgG1/kappa; also called antibody No. (5)
In the case of B3, the “KD (monkey)/KD (human)” value [6] is reported as 2.27.

B4: PR001162 (antibody, human IgG1, kappa, V domains shown)
VH: QVQLVESGGGVVQPGTSLRLSCVASGFTFSNDGMHWVRQAPGMGLEWVAIMWFDGGSKYYADSVKGRFTISRDNSKNTLYLQMNNLRAEDTAVYYCARDHPHYLGSGSFDYWGQGTLVTVSS
VL: EIVLTQSPATLSLSPGERATLSCRASQSVSSYLAWYQQKPGQAPRLLIYDASNRATGIPARFSGSGSGTDFTLTISSLQAEDVAVYYCQQYYSTPYTFGQGTKLEIKR
notes: fully human IgG1/kappa; also called antibody No. (23)
B4 was tested, and the “KD (monkey)/KD (human)” value [6] was 2.16.

B5: PR001139 (antibody, human IgG1, kappa, V domains shown)
VH: QVQLVESGGGVVQPGRSLRLSCAASGFTFSSFGMQWVRQGPGKGLEWVAVMWFDGSNKYYVDSVKGRFTISRDNSKNTLYLQMNSLRAEDTAVYYCARLDFSGWPLIDYWGQGTLVTVSS
VL: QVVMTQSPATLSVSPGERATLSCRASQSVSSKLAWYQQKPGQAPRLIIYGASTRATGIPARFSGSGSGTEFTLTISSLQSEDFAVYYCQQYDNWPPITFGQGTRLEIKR
notes: fully human IgG1/kappa; also called antibody No. (8)
For B5, the “KD (monkey)/KD (human)” value [6] was 1.62.

B6: comparative example 2 antibody Tab (hRS7) (antibody, human IgG1, kappa, V domains shown)
VH: QVQLQQSGSELKKPGASVKVSCKASGYTFTNYGMNWVKQAPGQGLKWMGWINTYTGEPTYTDDFKGRFAFSLDTSVSTAYLQISSLKADDTAVYFCARGGFGSSYWYFDVWGQGSLVTVSS
VL: DIQLTQSPSSLSASVGDRVSITCKASQDVSIAVAWYQQKPGKAPKLLIYSASYRYTGVPDRFSGSGSGTDFTLTISSLQPEDFAVYYCQQHYITPLTFGAGTKVEIKR
notes: prepared on the basis of sacituzumab govitecan (ChemPartner, #T07-001); naked antibody
B6 was tested, and the “ADCP (Donor A1925144#) EC50(nM)” value [1] was 0.125 nM, the “ADCP (Donor A1925144#) Maximum phagocytosis %” value [1] was 14.8% and the “ADCP (Donor A1925144#) Minimum phagocytosis %” value [1] was 1.72%. The “ADCP (Donor A19143143#) EC50(nM)” value [1] was 0.208 nM, the “ADCP (Donor A19143143#) Maximum phagocytosis %” value [1] was 44.8% and the “ADCP (Donor A19143143#) Minimum phagocytosis %” value [1] was 1.04%. For the same binder, the EC50 [7] was 2.67 nM, the “Inhibition rate (%)” value [2] was 92% and the “Inhibition rate (%)” value [3] was 93.3%. For the same binder, the “Inhibition rate (%)” value [4] was 96.5% and the “Inhibition rate (%)” value [5] was 7.34%.

B7: PR001165 (antibody, human IgG1, kappa, V domains shown)
VH: QVQLVESGGGVVQPGRSLRLSCEASGFTFSHYGMHWVRQAPGKGLEWVAVIWYDGIKTYYVESVKGRFTISRDNSKNTLNLQMNRLRAEDTAVYYCARDGGFGESNYYGLDVWGQGTTVTVSS
VL: DIQLTQSPSFLSASVGDRVTITCRASQGISSYLGWYQQKPGKAPKLLIYIASTLQSGVPSRFSGSGSGTEFTLTISSLQPEDFATYYCQQLNSYPYTFGQGTKLEIKR
notes: fully human IgG1/kappa; also called antibody No. (26)
For B7, the “ADCP (Donor A1925144#) EC50(nM)” value [1] was 0.0683 nM, the “ADCP (Donor A1925144#) Maximum phagocytosis %” value [1] was 12.5% and the “ADCP (Donor A1925144#) Minimum phagocytosis %” value [1] was 2.25%. For the same binder, the “ADCP (Donor A19143143#) EC50(nM)” value [1] was 0.178 nM, the “ADCP (Donor A19143143#) Maximum phagocytosis %” value [1] was 42.7% and the “ADCP (Donor A19143143#) Minimum phagocytosis %” value [1] was 1.37%. The EC50 [7] was 1.71 nM, the “Inhibition rate (%)” value [2] was 97.7% and the “Inhibition rate (%)” value [3] was 98.1%. The “Inhibition rate (%)” value [4] was 96.4% and the “Inhibition rate (%)” value [5] was 5.24%.
